4 molecules from patent US20260015426A1 (23ANDME, published 2026) can be followed below.

Assay [1] concerns the target T1, hu-M-IL1RAP construct, positions S21-T367 (extracellular domain of the membrane form of human IL1RAP) (human, UniProt Q9NPH3 21-367).
T1 construct: Biotinylated when captured on the Biacore chip
T1 sequence: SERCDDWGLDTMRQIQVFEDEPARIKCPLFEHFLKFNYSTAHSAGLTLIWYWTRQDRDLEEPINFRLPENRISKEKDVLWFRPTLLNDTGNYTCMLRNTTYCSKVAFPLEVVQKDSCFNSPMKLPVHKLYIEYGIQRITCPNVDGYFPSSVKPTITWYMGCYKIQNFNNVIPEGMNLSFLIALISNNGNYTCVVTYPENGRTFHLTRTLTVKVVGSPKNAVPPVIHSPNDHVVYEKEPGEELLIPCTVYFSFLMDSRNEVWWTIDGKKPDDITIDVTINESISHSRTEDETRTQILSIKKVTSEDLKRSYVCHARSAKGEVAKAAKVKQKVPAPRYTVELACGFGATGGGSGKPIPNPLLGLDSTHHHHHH
The assay can be described thus: phage display selection of affinity maturation libraries + NGS; enrichment of the mutation R96D (VH).
Protocol: (§1) For the first panning round, plates and phage libraries were blocked in PBS buffer containing 0.05% TWEEN® 20 and 1% BSA for either 1 hour (plates) or 30 minutes (phage libraries). Plates were washed in Wash Buffer (PBS buffer containing 0.05% TWEEN® 20) and incubated with blocked phage libraries for 2 hours with shaking. Non-specifically bound phage was removed by washing vigorously with Wash Buffer. […] Non-specific interactions were inhibited by adding 1/10th v/v 1% BSA.
(§2) For panning rounds three through five, phage libraries were incubated with blocking buffer (PBS buffer with 1% BSA in round 3 and SUPERBLOCK™ PBS buffer (Pierce) and 0.05% TWEEN® 20 in rounds 4 and 5) for 30 minutes and then incubated with decreasing concentrations of biotinylated hu-M-IL1RAP for 1 hour. Hu-M-IL1RAP-bound phage were captured on blocked neutravidin-coated plates, washed extensively with Wash Buffer, and eluted and neutralized in the same manner as in rounds 1 and 2. In the final selection round, 1000× non-biotinylated hu-M-IL1RAP was added as a competitor to increase the selection stringency.
(§3) To extract sequences from affinity maturation libraries using NGS, phagemid double stranded DNA was isolated from E. coli XL-1 cells carrying phagemids from the initial phage library (unsorted libraries) and from the second and third rounds of solution selection (sorted libraries). […]

Assay [2] addresses T1, hu-M-IL1RAP construct, positions …. The assay can be described thus: SPR, Fab against parent Fab.
Assay [3] has the same target. The assay can be described thus: SPR, Fab analyte, 37 C. On the technique in general: SPR reads the build-up and loss of mass on a sensor chip optically.
Protocol: Surface plasmon resonance (SPR) analysis was used to determine binding affinity for hu-M-IL1RAP of the purified Fabs containing the selected single, double, and triple mutations in either the VL or VH regions using a BIACORE™ 8K instrument. […] For kinetics measurements, 5 nM biotinylated hu-M-IL1RAP was captured at 10 μL/min to achieve ˜50 response units in the second flow cell (FC2). FC1 was kept as a reference. […] The sensorgrams were recorded and subjected to reference and buffer subtraction before data analysis with the BIACORE® 8K Evaluation Software (version 1.1.1.7442). Association rates (kₒₙ) and dissociation rates (koff) were calculated using a simple one-to-one Langmuir binding model. The equilibrium dissociation constant (KD) was calculated as the ratio of koff/kₒₙ.
Assay [4] has the same target. The assay can be described thus: SPR, Fab analyte, 25 C.
The target is the same in assay [5]. The assay can be described thus: phage display selection of affinity maturation libraries + NGS; enrichment of the mutation R96Q (VH).
Protocol: as §1, §2, §3
The target is the same in assay [6]. The assay can be described thus: phage display selection of affinity maturation libraries + NGS; enrichment of the mutation V51S (VH).
Protocol: as §1, §2, §3
Assay [7] shares this target. The assay can be described thus: phage display selection of affinity maturation libraries + NGS; enrichment of the mutation F29Q (VH).
Protocol: as §1, §2, §3

Where a chain is given by its changes, count along the chain named. In names and notes the source's numbering stands.

B1: H2 Fab (VH R96D) (Fab, V domains shown)
VH: EVQLVESGGGLVQPGGSLRLSCAASGFTFSNYAMSWVRQAPGKGLEWVATVTEGGDYNYYLDDVKGRFTISRDNAKNSLYLQMNSLRAEDTAVYYCARDDWPYFFDYWGQGTLVTVSS
VL: DIQMTQSPSSLSASVGDRVTITCRASENIYSNLAWYQQKPGKSPKLLVYGAKNLADGVPSRFSGSGSGTDYTLTISSLQPEDFATYYCQHFWTTPRTFGGGTKVEIK
notes: Fab with 8xHis tag
The term Kd denotes the constant that tells how readily two partners part at equilibrium. A high value points to lower affinity. As usually defined, the koff is a measure of how fast the partners let go of each other. A word on the kon: it is a measure of how fast the partners come together. Higher therefore signals faster complex formation. As for B1, the “Enrichment ratio (at the highest selection stringency)” value in assay [1] was 4.06 ratio. Further, in assay [2], the “Fold Improvement in KD @ 25° C.” value was 7.99 fold and the “Fold Improvement in KD @ 37° C.” value amounted to 2.39 fold. In assay [3], this molecule showed a Kd of 112 pM, a dissociation rate constant (koff) of 0.000729 s⁻¹ and an association rate constant (kon) of 6.5e+06 M⁻¹ s⁻¹. In assay [4], this molecule returned a dissociation constant Kd of 42.2 pM, an off-rate constant (koff) of 0.000219 s⁻¹ and a kon of 5.19e+06 M⁻¹ s⁻¹.

B2: H6 Fab (VH R96Q) (Fab, V domains shown)
VH: B1 VH with D100Q
VL: B1 VL
notes: Fab with 8xHis tag
For B2, the “Enrichment ratio (at the highest selection stringency)” value in assay [5] came to 3.8 ratio. Besides, in assay [2], the “Fold Improvement in KD @ 25° C.” value is 7.2 fold and the “Fold Improvement in KD @ 37° C.” value worked out at 1.43 fold. In assay [3], this molecule yielded a Kd of 188 pM, a dissociation rate constant (koff) of 0.000708 s⁻¹ and a kon of 3.76e+06 M⁻¹ s⁻¹. In assay [4], this molecule displayed a Kd of 46.8 pM, a koff of 0.00025 s⁻¹ and an on-rate constant (kon) of 5.34e+06 M⁻¹ s⁻¹.

B3: H3 Fab (VH V51S) (Fab, V domains shown)
VH: B1 VH with V51S, D100R
VL: B1 VL
notes: Fab with 8xHis tag
For the molecule B3, the “Enrichment ratio (at the highest selection stringency)” value in assay [6] amounted to 3.42 ratio. In addition, in assay [2], the “Fold Improvement in KD @ 25° C.” value was 8.51 fold and the “Fold Improvement in KD @ 37° C.” value was 2.14 fold. In assay [3], this molecule had a Kd of 125 pM, a koff of 0.000602 s⁻¹ and a kon of 4.82e+06 M⁻¹ s⁻¹. In assay [4], this molecule gave a Kd of 39.6 pM, a dissociation rate constant (koff) of 0.000208 s⁻¹ and an on-rate (kon) of 5.26e+06 M⁻¹ s⁻¹.

B4: H4 Fab (VH F29Q) (Fab, V domains shown)
VH: B1 VH with F29Q, D100R
VL: B1 VL
notes: Fab with 8xHis tag
Turning to B4, in assay [2], the “Fold Improvement in KD @ 25° C.” value came out at 8 fold. In assay [4], this molecule had a Kd of 42.1 pM, a koff of 0.000231 s⁻¹ and a kon of 5.49e+06 M⁻¹ s⁻¹. Further, the “Enrichment ratio (at the highest selection stringency)” value in assay [7] is 3.02 ratio.
